In patent publication US20260008817A1, “CYCLIC PEPTIDE OR SALT THEREOF, AND USES THEREOF” (FUJIFILM Corporation, priority 2023, published 2026):
Positions of bridges follow the written chain, without caps; N, C: chain ends. No end group written: not given here. COCH2 = acetyl group that carries the bridge

Target: T1, Recombinant Human FGFR1 alpha (IIIc) Fc Chimera Protein (Homo sapiens, UniProt P11362)
T1 construct: purchased R&D systems 658-FR-050
Assay: ELISA binding affinity of enzymatically synthesized peptide to FGFR
Conditions: ELISA luminescence signal at 10 nmol/L peptide, SEQ ID NO: 239 standardized to 1; enzyme synthesis product
Experimental: The binding affinity of the peptide to FGFR was evaluated using an ELISA method.
The peptide used for the evaluation was enzymatically synthesized by the following method.
First, a fusion peptide (SEQ ID NO: 25) in which a translation enhancing sequence (SEQ ID NO: 22), a peptide, a Myc tag (SEQ ID NO: 23), and a HiBiT tag (SEQ ID NO: 24) were linked in this order was designed. Next, a template DNA sequence (SEQ ID NO: 26) was designed in which a T7 promoter sequence, a Shine-Dalgarno sequence, a sequence necessary for transcription and translation initiation, such as a start codon (ATG), was provided on the 5′ terminal side of the DNA sequence encoding the fused peptide, and a stop codon group was provided on the 3′ terminal side thereof. In a case where the triplet TAG codon is included in the template DNA sequence, the above-described codon is assigned to the codon of chloroacetylated lysine, and thus, the peptide encoded by the above-described DNA sequence is a cyclic peptide in which a thiol group of cysteine and a chloroacetyl group of chloroacetylated lysine spontaneously form a thioether bond.
The cell-free enzymatic synthesis of the polypeptide was performed in a translation solution containing a template DNA, PUREfrex 2.0 (GeneFrontier, PF201-0.25-5), and Aminoacyl tRNA (1). 1.75 μL ([…]) of the template DNA prepared to 50 ng/μL, 2.5 μL of PUREfrex 2.0 Solution I, 0.25 μL of Solution II, 0.5 μL of Solution III, and a dried product of Aminoacyl tRNA (1) (final concentration: 0.5 ng/μL) were mixed and mixture was subjected to a reaction at 37° C. for 1 hour.
The concentration of the enzymatically synthesized peptide was measured using the peptide diluted with Can Get Signal Immunoreaction Enhancer Solution I (TOYOBO, NKB-101), Nano-Glo HiBiT Lytic Detection System (Promega, N3040), and a chemical synthetic peptide for a calibration curve having a known concentration (SEQ ID NO: 33) according to the standard protocol of the Nano-Glo HiBiT Lytic Detection System.
The binding affinity of the enzymatically synthesized peptide to FGFR was measured by evaluating the amount of the peptide bound to FGFR by ELISA.
First, 5 ng of Recombinant Human FGFR1 alpha (IIIc) Fc Chimera Protein (R&D systems, 658-FR-050) was immobilized in each well of a 96-well plate, and blocked with Pierce Protein-Free (PBS) Blocking Buffer (Thermo, 37572), and a peptide diluted with Can Get Signal Immunoreaction Enhancer Solution I (TOYOBO, NKB-101) was then added and reacted at room temperature for 3 hours. After washing with 0.05% Tween 20-containing phosphate buffered saline (PBS), an anti-Myc antibody (Cell Signaling, 14038S) diluted with Can Get Signal Immunoreaction Enhancer Solution II (TOYOBO, NKB-101) was added and reacted at room temperature for 2 hours. After washing with 0.05% Tween 20-containing PBS, SuperSignal ELISA Femto Substrate (Thermo, 37075) was added, and the luminescence amount was measured. The dose-response relationship was calculated from using the difference between the luminescence amount in the well in which FGFR was immobilized and the luminescence amount in the well in which FGFR was not immobilized, and the concentration of the peptide at the time of reaction, and the binding affinity to FGFR was evaluated according to the following evaluation criteria. The evaluation result preferably satisfies the evaluation criteria A, B, or C.
In a case where a value of a luminescence signal emitted by the cyclic peptide set forth in SEQ ID NO: 239 at a reaction concentration of 10 nmol/L is standardized to 1, evaluation criteria of the luminescence signal value emitted by the peptide at a reaction concentration of 10 nmol/L is as follows. • A: 0.7 or more • B: 0.5 or more and less than 0.7 • C: 0.1 or more and less than 0.5 • D: less than 0.1.

T1 sequence (P11362 with tags, fused parts or gaps limits assumed): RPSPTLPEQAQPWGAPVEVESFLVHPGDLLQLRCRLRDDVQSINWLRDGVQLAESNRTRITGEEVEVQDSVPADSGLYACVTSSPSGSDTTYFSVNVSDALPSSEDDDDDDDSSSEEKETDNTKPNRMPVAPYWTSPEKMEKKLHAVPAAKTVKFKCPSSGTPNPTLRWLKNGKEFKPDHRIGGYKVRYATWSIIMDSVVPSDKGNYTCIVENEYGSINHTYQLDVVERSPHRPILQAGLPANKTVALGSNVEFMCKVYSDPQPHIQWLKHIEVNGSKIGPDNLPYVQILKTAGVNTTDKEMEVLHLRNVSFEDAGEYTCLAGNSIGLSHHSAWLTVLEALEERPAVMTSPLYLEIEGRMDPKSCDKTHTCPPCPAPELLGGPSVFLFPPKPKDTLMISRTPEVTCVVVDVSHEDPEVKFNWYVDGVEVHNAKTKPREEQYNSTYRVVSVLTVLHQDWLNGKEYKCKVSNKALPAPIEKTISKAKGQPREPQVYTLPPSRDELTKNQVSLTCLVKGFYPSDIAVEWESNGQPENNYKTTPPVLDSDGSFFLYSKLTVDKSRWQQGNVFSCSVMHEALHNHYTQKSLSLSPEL

56 (ICLYTFDAHAHSLHAALTK(COCH2)I; thioether 2-19 (inferred)) [compound 56]
Evaluation result of binding affinity to FGFR: B (0.5 or more and less than 0.7)

57 (ICIYTFDAHAHSLHAALTK(COCH2)I; thioether 2-19 (inferred)) [compound 57]
Evaluation result of binding affinity to FGFR: A (0.7 or more)

58 (ICFYTFDAHAHSLHAALTK(COCH2)I; thioether 2-19 (inferred)) [compound 58]
Evaluation result of binding affinity to FGFR: C (0.1 or more and less than 0.5)

59 (ICYYTFDAHAHSLHAALTK(COCH2)I; thioether 2-19 (inferred)) [compound 59]
Evaluation result of binding affinity to FGFR: C (0.1 or more and less than 0.5)

60 (ICTYTFDAHAHSLHAALTK(COCH2)I; thioether 2-19 (inferred)) [compound 60]
Evaluation result of binding affinity to FGFR: C (0.1 or more and less than 0.5)

61 (ICVFTFDAHAHSLHAALTK(COCH2)I; thioether 2-19 (inferred)) [compound 61]
Evaluation result of binding affinity to FGFR: C (0.1 or more and less than 0.5)

62 (ICVWTFDAHAHSLHAALTK(COCH2)I; thioether 2-19 (inferred)) [compound 62]
Evaluation result of binding affinity to FGFR: C (0.1 or more and less than 0.5)

63 (ICVHTFDAHAHSLHAALTK(COCH2)I; thioether 2-19 (inferred)) [compound 63]
Evaluation result of binding affinity to FGFR: A (0.7 or more)

64 (ICVYAFDAHAHSLHAALTK(COCH2)I; thioether 2-19 (inferred)) [compound 64]
Evaluation result of binding affinity to FGFR: B (0.5 or more and less than 0.7)

65 (ICVYGFDAHAHSLHAALTK(COCH2)I; thioether 2-19 (inferred)) [compound 65]
Evaluation result of binding affinity to FGFR: C (0.1 or more and less than 0.5)

66 (ICVYLFDAHAHSLHAALTK(COCH2)I; thioether 2-19 (inferred)) [compound 66]
Evaluation result of binding affinity to FGFR: C (0.1 or more and less than 0.5)

67 (ICVYIFDAHAHSLHAALTK(COCH2)I; thioether 2-19 (inferred)) [compound 67]
Evaluation result of binding affinity to FGFR: C (0.1 or more and less than 0.5)

68 (ICVYVFDAHAHSLHAALTK(COCH2)I; thioether 2-19 (inferred)) [compound 68]
Evaluation result of binding affinity to FGFR: C (0.1 or more and less than 0.5)

69 (ICVYQFDAHAHSLHAALTK(COCH2)I; thioether 2-19 (inferred)) [compound 69]
Evaluation result of binding affinity to FGFR: B (0.5 or more and less than 0.7)

70 (ICVYSFDAHAHSLHAALTK(COCH2)I; thioether 2-19 (inferred)) [compound 70]
Evaluation result of binding affinity to FGFR: A (0.7 or more)

71 (ICVYEFDAHAHSLHAALTK(COCH2)I; thioether 2-19 (inferred)) [compound 71]
Evaluation result of binding affinity to FGFR: C (0.1 or more and less than 0.5)

72 (ICVYRFDAHAHSLHAALTK(COCH2)I; thioether 2-19 (inferred)) [compound 72]
Evaluation result of binding affinity to FGFR: C (0.1 or more and less than 0.5)

73 (ICVYHFDAHAHSLHAALTK(COCH2)I; thioether 2-19 (inferred)) [compound 73]
Evaluation result of binding affinity to FGFR: C (0.1 or more and less than 0.5)

74 (ICVYTADAHAHSLHAALTK(COCH2)I; thioether 2-19 (inferred)) [compound 74]
Evaluation result of binding affinity to FGFR: C (0.1 or more and less than 0.5)

75 (ICVYTGDAHAHSLHAALTK(COCH2)I; thioether 2-19 (inferred)) [compound 75]
Evaluation result of binding affinity to FGFR: C (0.1 or more and less than 0.5)

76 (ICVYTYDAHAHSLHAALTK(COCH2)I; thioether 2-19 (inferred)) [compound 76]
Evaluation result of binding affinity to FGFR: B (0.5 or more and less than 0.7)

77 (ICVYTWDAHAHSLHAALTK(COCH2)I; thioether 2-19 (inferred)) [compound 77]
Evaluation result of binding affinity to FGFR: B (0.5 or more and less than 0.7)

78 (ICVYTSDAHAHSLHAALTK(COCH2)I; thioether 2-19 (inferred)) [compound 78]
Evaluation result of binding affinity to FGFR: C (0.1 or more and less than 0.5)

79 (ICVYTHDAHAHSLHAALTK(COCH2)I; thioether 2-19 (inferred)) [compound 79]
Evaluation result of binding affinity to FGFR: C (0.1 or more and less than 0.5)

80 (ICVYTFAAHAHSLHAALTK(COCH2)I; thioether 2-19 (inferred)) [compound 80]
Evaluation result of binding affinity to FGFR: C (0.1 or more and less than 0.5)

81 (ICVYTFGAHAHSLHAALTK(COCH2)I; thioether 2-19 (inferred)) [compound 81]
Evaluation result of binding affinity to FGFR: C (0.1 or more and less than 0.5)

82 (ICVYTFPAHAHSLHAALTK(COCH2)I; thioether 2-19 (inferred)) [compound 82]
Evaluation result of binding affinity to FGFR: C (0.1 or more and less than 0.5)

83 (ICVYTFVAHAHSLHAALTK(COCH2)I; thioether 2-19 (inferred)) [compound 83]
Evaluation result of binding affinity to FGFR: C (0.1 or more and less than 0.5)

84 (ICVYTFFAHAHSLHAALTK(COCH2)I; thioether 2-19 (inferred)) [compound 84]
Evaluation result of binding affinity to FGFR: C (0.1 or more and less than 0.5)

85 (ICVYTFYAHAHSLHAALTK(COCH2)I; thioether 2-19 (inferred)) [compound 85]
Evaluation result of binding affinity to FGFR: C (0.1 or more and less than 0.5)

86 (ICVYTFWAHAHSLHAALTK(COCH2)I; thioether 2-19 (inferred)) [compound 86]
Evaluation result of binding affinity to FGFR: C (0.1 or more and less than 0.5)

87 (ICVYTFNAHAHSLHAALTK(COCH2)I; thioether 2-19 (inferred)) [compound 87]
Evaluation result of binding affinity to FGFR: A (0.7 or more)

88 (ICVYTFSAHAHSLHAALTK(COCH2)I; thioether 2-19 (inferred)) [compound 88]
Evaluation result of binding affinity to FGFR: C (0.1 or more and less than 0.5)

89 (ICVYTFDGHAHSLHAALTK(COCH2)I; thioether 2-19 (inferred)) [compound 89]
Evaluation result of binding affinity to FGFR: B (0.5 or more and less than 0.7)

90 (ICVYTFDPHAHSLHAALTK(COCH2)I; thioether 2-19 (inferred)) [compound 90]
Evaluation result of binding affinity to FGFR: B (0.5 or more and less than 0.7)

91 (ICVYTFDLHAHSLHAALTK(COCH2)I; thioether 2-19 (inferred)) [compound 91]
Evaluation result of binding affinity to FGFR: C (0.1 or more and less than 0.5)

92 (ICVYTFDIHAHSLHAALTK(COCH2)I; thioether 2-19 (inferred)) [compound 92]
Evaluation result of binding affinity to FGFR: C (0.1 or more and less than 0.5)

93 (ICVYTFDVHAHSLHAALTK(COCH2)I; thioether 2-19 (inferred)) [compound 93]
Evaluation result of binding affinity to FGFR: C (0.1 or more and less than 0.5)

94 (ICVYTFDYHAHSLHAALTK(COCH2)I; thioether 2-19 (inferred)) [compound 94]
Evaluation result of binding affinity to FGFR: C (0.1 or more and less than 0.5)
